Laboratory results as given in publication PMC10478764.

Target: Mu8.1 conotoxin from Conus mucronatus (Conus mucronatus)
Assay: crystal structure

Substance: Mu8.1 conotoxin from Conus mucronatus (natural protein)
- stoichiometry N: 2
